In paper PMC6356061 one finds fold enrichment in Tau band intensity over pre-immune IgG control and change in the amount (fluorescence intensity) of synaptic GluN1-NMDA after exposure of neurons to Fib-Tau (0.36 nM, 60 min); no change data, which are given here for 1 substance.

Assay [1] deals with NMDA receptor GluN1 subunit (mouse (endogenous in primary cortical neurons)) (UniProt P35438). Kind of assay: co-IP; extracts of neurons exposed 10 min to 14.4 nM biotinylated Fib-Tau; immunoprecipitation with anti-α3-NKA, anti-GluA2 or anti-GluN1 and protein G magnetic beads, 4°C; Fib-Tau detected on slot blot with streptavidin-HRP; controls with pre-immune goat or rabbit IgG.

For assay [2] the target is unchanged.

Regarding “Biotin-labelled fibrillar Tau-1N3R (Fib-Tau-1N3R) (from UniProt P10636-4 1-381) (natural protein)”, the fold enrichment in Tau band intensity over pre-immune IgG control in assay [1] stood at 1.8 fold. The change in the amount (fluorescence intensity) of synaptic GluN1-NMDA after exposure of neurons to Fib-Tau (0.36 nM, 60 min); no change in assay [2] is -3.2%.
